Series [1] concerns the target NS3 (Hepatitis C virus genotype 1b, UniProt P26663). The conditions noted are these: read-out: affinity for NS3 in solution; cited from earlier work.
In series [2] the target is Biotin-DTEDVVAC …-pY (streptavidin-tagged peptide) (Hepatitis C virus). Kind of series: SPR (BIAcore); 4G10 amine-coupled to the chip, streptavidin-tagged phosphotyrosine peptide injected, regeneration with 2 M MgCl2.
Series [3] deals with T1, 5A/5B (P8P8') substrate DTEDVVCC*SMSYTWTG-K.
T1 chain: DTEDVVCCSMYTWTGK

The target of series [4] is T2, His-NS31-181 (NS3 catalytic domain) (Hepatitis C virus (1b/BK strain), UniProt Q9WMX2 1027-1206).
T2 chain: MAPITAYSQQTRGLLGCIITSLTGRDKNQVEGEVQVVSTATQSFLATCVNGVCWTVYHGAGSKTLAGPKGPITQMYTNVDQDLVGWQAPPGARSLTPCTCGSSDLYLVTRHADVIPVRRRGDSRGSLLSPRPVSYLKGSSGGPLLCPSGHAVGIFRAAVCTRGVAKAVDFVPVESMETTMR
Kind of series: cell-based or functional assay.

Series [5] has as its system 5A/5B (P8P8′) substrate DTEDVVCC*SMSYTWTG-K. Kind of series: Proteolytic activity by 1D-HPLC (reverse-phase) with 5A/5B substrate. Type of series: biochemical, HCV Japanese (1b/BK) strain. Particulars: for Km / kcat: 5A/5B substrate, room temperature, 60 min, footnote a for His-NS31-181 + NS4A Peptide: [E] = 0.25 μM, [NS4A Peptide] = 10 μM. How it is done: Following expression and purification, newly engineered recombinant species were assayed for proteolytic activity utilizing a 1D-HPLC (reverse-phase chromatography) technique. Assays were conducted using the 5A/5B (P8P8′) substrate DTEDVVCC*SMSYTWTG-K (SEQ ID NO: 25) in 25 mM Tris-HCl pH 7.5, 150 mM NaCl, 0.5 mM EDTA, 10 mM DTT, 10% glycerol, and 0.05% lauryl maltoside. Concentration of all proteins were determined by BIORAD dye method). […] Reactions were incubated at room temperature for 60 minutes and were quenched with an equal volume of 10% phosphoric acid. Following injection, cleavage products were monitored under a linear 0-80% acetonitrile gradient in 0.1% TFA. The product P1′P8′K peak areas were automatically converted to product quantity in nanomoles by a standard curve.
The various covalent NS4A-NS3 complexes whose proteolytic efficiency has been determined according to the above method, and the results of each determination, are shown in Table 1.

The nature of series [6]: Size exclusion chromatography (aggregated vs monodispersed form). It is filed as physicochemical. The conditions noted are these: for period for which the complex remains monodispersed: 4° C. How it is done:
Two hundred μl of various purified proteins were applied to a calibrated Superdex-75 HR (1 cm×30 cm) FPLC column equilibrated with 25 mM HEPES, pH 7.4, 1M NaCl and 10% glycerol and 10 mM βME at 0.5 ml/min. The column was precalibrated using Pharmacia standard calibration proteins (BSA: 67 KDa; Ovalbumin: 43 KDa; Chymotrypsinogen A: 31 KDa; Ribonuclease A: 13.7 KDa). Protein elution was monitored at 280 nm.
Background: In gel filtration, larger molecules generally elute earlier.

Series [7] can be described thus: Solubility judged by achievable concentration of the complex. Type of series: physicochemical. The source says: Thirteen representative embodiments of such mutant NS4A-NS3 complexes are disclosed in the Examples below. In some embodiments, the isoleucine at position 17 is mutated to lysine. One such mutant form is referred to as His-NS4A21-32-GSGS-NS33-181/I17K (SEQ ID NO: 2). In other embodiments, the same mutation is made at position 18. One such mutant form is referred to as His-NS4A21-32-GSGS-NS33-181/I18K (SEQ ID NO: 3). In yet other embodiments, the mutations are introduced at both positions. One such mutant is referred to as His-NS4A21-32-GSGS-NS33-181/I17K,I18K (SEQ ID NO: 4).
A “soluble” covalent complex as referred to herein is defined as a protein which will remain in solution after a high spin centrifugation step at 300,000×g in a standard ultracentrifuge in a buffer containing 25 mM HEPES, pH 7.6, 10% glycerol, 0.3 M NaCl, 10 mM βME.

Numbering of substitutions follows the chain as printed. Numbers in names are those of the source.

“NS4A peptide: 13-19 residue NS4A peptide spanning the central hydrophobic domain of the full-length NS4A protein (KKGSVVIVGRIVLSGKPAIIPKK)”: in series [1], the Kd was 10 µM.
For “Anti-phosphotyrosine monoclonal antibody 4G10 (Upstate Biotechnology Inc.)”, the % binding of tagged peptide after regeneration in series [2] was 100%.

B1: NS31-631-NS4A1-54 (non-covalent full-length NS3 protease / NS4A complex) (protein)
chain 1: MAPITAYSQQTRGLLGCIITSLTGRDKNQVEGEVQVVSTATQSFLATCVNGVCWTVYHGAGSKTLAGPKGPITQMYTNVDQDLVGWQAPPGARSLTPCTCGSSDLYLVTRHADVIPVRRRGDSRGSLLSPRPVSYLKGSSGGPLLCPSGHAVGIFRAAVCTRGVAKAVDFVPVESMETTMRSPVFTDNSSPPAVPQSFQVAHLHAPTGSGKSTKVPAAYAAQGYKVLVLNPSVAATLGFGAYMSKAHGIDPNIRTGVRTITTGAPVTYSTYGKFLADGGCSGGAYDIIICDECHSTDSTTILGIGTVLDQAETAGARLVVLATATPPGSVTVPHPNIEEVALSNTGEIPFYGKAIPIEAIRGGRHLIFCHSKKKCDELAAKLSGLGINAVAYYRGLDVSVIPTIGDVVVVATDALMTGYTGDFDSVIDCNTCVTQTVDFSLDPTFTIETTTVPQDAVSRSQRRGRTGRGRRGIYRFVTPGERPSGMFDSSVLCECYDAGCAWYELTPAETSVRLRAYLNTPGLPVCQDHLEFWESVFTGLTHIDAHFLSQTKQAGDNFPYLVAYQATVCARAQAPPPSWDQMWKCLIRLKPTLHGPTPLLYRLGAVQNEVTLTHPITKYIMACMSADLEVVT
chain 2: STWVLVGGVLAALAAYCLTTGSVVIVGRIILSGRPAIVPDRELLYQEFDEMEEC
A word on the Km: it is the concentration of substrate that gives half-maximal velocity. For orientation: kcat means the number of substrate molecules converted per active site and unit of time at saturation. By kcat/Km is commonly meant the turnover number divided by the Michaelis constant. B1: in series [3], the Km worked out at 20 µM, the kcat is 0.167 s⁻¹ and the kcat/Km stood at 8000 M⁻¹ s⁻¹.
KKGSVVIVGRIVLSGKPAIIPKK [4A peptide KKGSVVIVGRIVLSGKPAIIPKK]: the “catalytic activity relative to full-length NS31-631-NS4A1-54” value in series [4] worked out at 8 fold lower.

B2: His-NS31-181 + NS4A Peptide (non-covalent complex) (protein)
chain 1: T2 chain
chain 2: KKGSVVIVGRIVLSGKPAIIPKK
Regarding B2, in series [3], the Michaelis-Menten constant (Km) was found to be 80 µM, the kcat was 0.05 s⁻¹ and the kcat/Km worked out at 500 M⁻¹ s⁻¹.

B3: His-NS4A21-32-GSGS-NS33-181/I17K (protein)
chain: MGSSHHHHHHSSGLVPRGSHMGSVVIVGRIILSGSGSITAYSQQTRGLLGCKITSLTGRDKNQVEGEVQVVSTATQSFLATCVNGVCWTVYHGAGSKTLAGPKGPITQMYTNVDQDLVGWQAPPGARSLTPCTCGSSDLYLVTRHADVIPVRRRGDSRGSLLSPRPVSYLKGSSGGPLLCPSGHAVGIFRAAVCTRGVAKAVDFVPVESMETTMRS
As for B3, in series [3], the Km stood at 20 µM, the kcat came out at 0.267 s⁻¹ and the kcat/Km amounted to 14000 M⁻¹ s⁻¹. In addition, in series [5], the “kinetic properties compared with wild type” value is on record as “identical to those of the wild type”, the Michaelis constant (Km) amounted to 20 ± 2 µM and the kcat worked out at 0.267 ± 0.05 s⁻¹. For the same molecule, in series [6], the “dispersion state as judged by size exclusion chromatography” value (shortened to “dispersion state as judged”) is reported as “monodispersed” and the “period for which the complex remains monodispersed” value is given as “about one week”. In addition, in series [7], the “achievable concentration of the complex (solubility)” value (from here on “achievable concentration”) lay within 17 to 20 mg/mL.

B4: His-NS4A21-32-GSGS-NS33-181/I18K (protein)
chain: B3 chain with K52I, I53K
Turning to B4, in series [3], the Km was found to be 22 µM, the catalytic constant (kcat) worked out at 0.167 s⁻¹ and the kcat/Km came out at 8000 M⁻¹ s⁻¹. Moreover, in series [5], the “kinetic properties compared with wild type” value is listed as “identical to those of the wild type”, the Km was 22 ± 2 µM and the kcat amounted to 0.167 ± 0.033 s⁻¹. In series [6], the “dispersion state as judged” value was “monodispersed” and the “period for which the complex remains monodispersed” value is listed as “about one week”. Further, the “achievable concentration” value in series [7] was in the range of 17 to 20 mg/mL.

B5: His-NS4A21-32-GSGS-NS33-181 (protein)
chain: B3 chain with K52I
B5: in series [3], the Km was determined as 19 µM, the kcat was determined as 0.15 s⁻¹ and the catalytic efficiency (kcat/Km) turned out to be 8000 M⁻¹ s⁻¹.

B6: His-NS4A21-32-GSGS-NS33-181/I17K,I18K (protein)
chain: B3 chain with I53K
For B6, in series [5], the “kinetic properties compared with wild type” value is “identical to those of the wild type”. For the same molecule, in series [6], the “dispersion state as judged” value is “monodispersed” and the “period for which the complex remains monodispersed” value was “about one week”. Moreover, the “achievable concentration” value in series [7] was in the range of 17 to 20 mg/mL.
